According to patent US7879328B2 (Human Genome Sciences, Inc., priority 2000, dated 2011):

Experiments:
HIV = details: greater activity; cited from earlier work
[1] = molecular target: T1, murine membrane-bound B Lymphocyte Stimulator on P388 plasma membranes (Mus musculus, UniProt Q9WU72); assay: Competition ELISA on P388 plasma membranes; format: binding; details: phage scFv; for competition of P388 plasma membrane binding by HIS-tagged B Lymphocyte Stimulator: human competitor; for recognition of P388 plasma membranes: membranes coated at 10 μg/ml
T1 construct: endogenous in cells; host or cells: P388.D1 cells, plasma membrane fraction coated on plates
Protocol: The ability of the 5 scFvs listed in Table 8 to also recognize murine membrane-bound B Lymphocyte Stimulator was determined using a competition ELISA. This assay assesses the ability of test phage scFvs to bind to the membrane-bound form of B Lymphocyte Stimulator on the murine cell line, P388, plasma membranes in the presence of different forms of competing human B Lymphocyte Stimulator. Competing B Lymphocyte Stimulator was either presented as the His-tagged form of B Lymphocyte Stimulator, or soluble B Lymphocyte Stimulator. ScFvs that recognize mouse membrane-bound B Lymphocyte Stimulator would give an ELISA signal on the P388 plasma membranes that is competed out by pre-incubation with HIS-tagged B Lymphocyte Stimulator but not by pre-incubation with soluble B Lymphocyte Stimulator.
P388.D1 cells are a mouse monocyte-macrophage like cell line. They were cultured in L15 medium supplemented with 2 mM L-glutamine, 10% CS, 10U penicillin, 100 µg/ml streptomycin (all reagents from Sigma). Cells were split 1:4 every 3-4 days to maintain a cell density of 2−8×10^5 per ml. A fresh aliquot of cells was thawed from liquid nitrogen every 6 weeks. Plasma membrane fractions were prepared as described in Example 2.
P388 plasma membranes ([…] per well) were coated at 10 μg/ml in PBS onto Falcon 96-well plates overnight at 4° C. The method is otherwise essentially as described Example 16.

[2] = molecular target: mouse B Lymphocyte Stimulator (Mus musculus, UniProt Q9WU72); assay: Phage ELISA on immobilized mouse B Lymphocyte Stimulator; format: binding; details: phage scFv; antigen coated at 1 μg/ml
Protocol: To determine the specificity of the 48 scFvs, a phage ELISA was performed against human and mouse B Lymphocyte Stimulator, and a panel of related and unrelated human antigens: Fas ligand, TRAIL, TNFα, TNFβ, and PBS, The: Fas ligand, TRAIL, TNFα, and TNFβ antigens were obtained from R&D Systems, Minneapolis, Minn., Individual E. coli colonies containing phagemid were inoculated into 5 ml 2YTAG and incubated at 37° C. for 4 hours, shaking. M13KO7 helper phage (Pharmacia) was added to each tube to a MOI of 10 and incubated […] 1 hour, the first 30 minutes static and the final 30 minutes with gentle shaking. Cells were pelleted by centrifugation at 3,500 rpm for 10 minutes and the supernatant discarded. Cell pellets were resuspended in 5 ml 2TYAK and incubated at 30° C. overnight with shaking. The next day, the cells were pelleted by centrifugation at 3,500 rpm for 10 minutes. The phage-containing supernatant (5 ml) was carefully transferred to a fresh tube, 1 ml of 6MPBS was added, and the tube was incubated at room temperature for 1 hour to pre-block the phage prior to ELISA.
All antigens were coated at 1 μg/ml. ELISAs were performed essentially as described in Example 2. The only exception to this being the detection of phage antibody binding to mouse B Lymphocyte Stimulator where the step involving incubation with the HRP-labelled anti-mouse polymer was omitted. Binding to mouse B Lymphocyte Stimulator was detected with TMB as in Example 2.
To determine the specificity of the 33 scFvs, a phage ELISA was performed as described in Example 4 against human and mouse B Lymphocyte Stimulator, and a panel of related human antigens: TRAIL, LIGHT, TNFα, TNFβ, and an uncoated well (PBS only).

Chain of mouse B Lymphocyte Stimulator (Q9WU72 127-309 limits assumed): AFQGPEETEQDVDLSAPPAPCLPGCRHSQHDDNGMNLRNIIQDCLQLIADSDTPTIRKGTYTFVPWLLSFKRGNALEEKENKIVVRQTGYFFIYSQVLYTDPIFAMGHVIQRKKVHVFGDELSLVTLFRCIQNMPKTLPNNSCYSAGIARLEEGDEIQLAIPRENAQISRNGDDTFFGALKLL
T1 sequence (Q9WU72 whole entry): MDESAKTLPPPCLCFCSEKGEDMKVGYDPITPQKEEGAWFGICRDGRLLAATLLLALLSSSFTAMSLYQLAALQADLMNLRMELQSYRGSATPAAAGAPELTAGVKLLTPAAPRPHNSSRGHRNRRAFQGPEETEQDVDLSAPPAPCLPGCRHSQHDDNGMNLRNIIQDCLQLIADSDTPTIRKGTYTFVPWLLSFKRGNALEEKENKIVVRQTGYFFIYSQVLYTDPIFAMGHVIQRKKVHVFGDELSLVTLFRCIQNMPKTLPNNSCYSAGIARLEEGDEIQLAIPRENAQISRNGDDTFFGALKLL

Molecule | activity relative to HBY097 (HIV) [fold] | competition of P388 plasma membrane binding by HIS-tagged B Lymphocyte Stimulator [1] | recognition of P388 plasma membranes [1] | binding to immobilized mouse B Lymphocyte Stimulator [2]
CC[C@H]1C(=O)Nc2ccc(F)cc2N1C(=O)OC(C)C [GW-420867X] | 25 |  |  | 
I082H08: scFv, panel 3, binds membrane-bound B Lymphocyte Stimulator (protein, listed as Homo sapiens) scFv: EVQLVESGGGLVQPGGSLRLSCAASGFTFSDYGMHWVRQRPGKGLEWIAFIGSDGSNKYYGDTVKGRFTISRDNAKNSLYLQMNSLRAEGTAVYYCARDWDMDVWGQGTMVTVSSGGGGSGGGGSGGGGSSHVILTQPRSVSGSPGQSVTISCTGTSSDVGGYHYVSWYQQHPGKAPRLMIYEVTKRPSGVSNRFSGSKSGNTASLTISGVQAEDEADYYCSSYTSASTVIFGGGTKLTVLG |  | competed out | recognize | 
I037E07: scFv, panel 1, binds soluble and membrane-bound B Lymphocyte Stimulator (protein, listed as Homo sapiens) scFv: QVQLVQSGAEVKKPGASVKVSCKASGYTFTNYGITWVRQAPGQGLEWMGWISAYNGNRNYAQKLQGRVTMTTDTSTSTAYMELRSLRSDDTAVYYCVRDGIDILLVPAALMDVWGRGTMVTVSSGGGGSGGGGSGGGGSQSVLTQPASVSGSPGQSITISCTGTSSDVGGYNYVSWYQQHPGKAPKLMIYEGSKRPSGVSNRFSGSKSGNTASLTISGLQAEDEADYYCSSYTTRSTRVFGGGTKLTVLG |  |  |  | did not bind
I037E12: scFv, panel 1, binds soluble and membrane-bound B Lymphocyte Stimulator (protein, listed as Homo sapiens) scFv: EVQLVQSGAEVKKPGASVKVSCKASGYTFTNYGITWVRQAPGQGLEWMGWISAYNGNRNYAQKLQGRVTMTTDTSTSTAYMELRSLRSDDTAVYYCVRDGIDILLVPAALMDVWGKGTLVTVSSGGGGSGGGGSGGGGSQSVLTQPASVSGSPGQSITISCTGTSSDVGGYNYVSWYQQHPGKAPKLMIYEGNKRPSGVSNRFSGSKSGNTASLTISGLQAEDEADYYCSSYTTRSTRVFGGGTKLTVLG |  |  |  | did not bind
I079E02: scFv, panel 3, binds membrane-bound B Lymphocyte Stimulator (protein, listed as Homo sapiens) scFv: QVQLVQSGAEVKKPGSSVKVSCKASGGTFSSYAISWVRQAPGQGLEWMGGIIPIFGTANYAQKFQGRVTITADKSTSTAYMELSSLRSDDTAVYYCARDSGSYYYDAFDIWGKGTMVTVSSGGGGSGGGGSGGGGSDIVMTQSPSTLSASVGDRVTITCRASQGISSWLAWYQQKPGKAPKLLIYAASSLQSGVPSRFSGSGSGTDFTLTISSLQPEDFATYYCQQANSFPLTFGGGTKVEIKR |  | competed out | recognize | 
I008C03: scFv, panel 1, binds soluble and membrane-bound B Lymphocyte Stimulator (protein, listed as Homo sapiens) scFv: QMQLVRSGGGVVQPGRSLRLSCAASGFTFSSYGMHWVRQAPGKGLEWVSVTYSGGNTNYADSVRGRFTISRDNSKNTLYLQMNSLRAEDTAVYYCAREGSYDILTGYYVGVGRMDVWGKGTLVTVSSGGGGSGGGGSGGGGSSELTQDPAVSVALGQTVRITCQGDSLRSYYTNWFQQKPGQAPLLVVYAKNKRPSGIPDRFSGSSSGNTASLTITGAQAEDEADYYCNSRDSSGNHVVFGGGTKLTVLG |  |  |  | did not bind
I099D03: scFv, panel 3, binds membrane-bound B Lymphocyte Stimulator (protein, listed as Homo sapiens) scFv: QVQLVQSGAEVKKPGASVRVSCKSSGYTFTNYGISWVRQAPGQGLEWMGWISNNNGKTYYAQKVQGRVTMTTDTSTSTDYMELRGLRSDDTAIYYCARDNGGGTIGFDYWGRGTLVTVSSGGGGSGGGGSGGGGSAQAVLTQPSSVSGAPGQRVTMSCTGSSSNIGAGYDVHWYQQLPGTAPKLLIYDNTNRPSGVPDRFSGSRSGTSASLAITGLQAEDEADYFCQSYDITLSAVFGTGTKVTVLG |  | competed out | recognize | 
